Among the data in US20090291081A1 (AbbVie / Abbott, published 2009) are IC50 values, retold here.

First the molecules themselves.
B1: ABT1-95-35 (other)
VL: DIQMTQSPSSLSASVGDRVTITCRASGPIVRNLRWYQQKPGKAPKLLIYSSSYLEPGVPSRFSGSGSGTDFTLTISSLQPEDFATYHCQQGYRWPVTFGQGTKVEIKR
notes: VK dAb
B2: ABT1-95-53 (other)
VL: DIQMTQSPSSLSASVGDRVTITCRASQPIVANLRWYQQKPGKAPKLLIYSSSYLEPGVPSRFSGSGSGTDFTLTISSLQPEDFATYHCQQGYRWPVTFGQGTKVEIKR
notes: VK dAb
B3: ABT1-95-63 (other)
VL: DIQMTQSPSSLSASVGDRVTITCRASQPIVRNLRWYQQKLGKAPKLLIFSSSYLEPGVPSRFSGSGSGTDFTLTISSLQPEDFATYHCQQGYRWPVTFGQGTKVEIKR
notes: VK dAb
B4: ABT1-95-76 (other)
VL: DIQMTQSPSSLSASVGDRVTITCRASQPIVRNLRWYQQKPGKAPKLLIYSGSYLEPGVPSRFSGSGSGTDFTLTISSLQPEDFATYHCQQGYRWPVTFGQGTKVEIKR
notes: VK dAb
B5: ABT1-95-95 (other)
VL: DIQMIQSPSSLSASVGDRVTITCRASQPIVRNLRWYQQKPGKAPKLLIYSSSQLEPGVPSRFSGSGSGTDFTLTISSLQPEDFATYHCQQGYRWPVTFGQGTKVEIKR
notes: VK dAb
B6: ABT1-95-55 (other)
VL: DIQMTQSPSSLSASVGDRVTITCRASQPIVHNLRWYQQKPGKAPKLLIYSSSYLEPGVPSRFSGSGSGTDFTLTISSLQPEDFATYHCQQGYRWPVTFGQGTKVEIKR
notes: VK dAb
B7: ABT1-95-73 (other)
VL: DIQMTQSPSSLSASVGDRVTITCRASQPIVRNLRWYQQKPGKAPKLLIYQSSYLEPGVPSRFSGSGSGTDFTLTISSLQPEDFATYHCQQGYRWPVTFGQGTKVEIKR
notes: VK dAb
B8: ABT1-95-75 (other)
VL: DIQMTQSPSSLSASVGDRVTITCRASQPIVRNLRWYQQKPGKAPKLLIYSASYLEPGVPSRFSGSGSGTDFTLTISSLQPEDFATYHCQQGYRWPVTFGQGTKVEIKR
notes: VK dAb
B9: ABT1-95-46 (other)
VL: DIQMTQSPSSLSASVGDRVTITCRASSPIVQNLRWYQQKPGKAPKLLIYSSSYLEPGVPSRFSGSGSGTDFTLTISSLQPEDFATYHCQQGYRWPVTFGQGTKVEIKR
notes: VK dAb
B10: ABT1-95-59 (other)
VL: DIQMTQSPSSLSASVGDRVTITCRASQPIVKNLRWYQQKPGKAPKLLIYSSSYLEPGVPSRFSGSGSGTDFTLTISSLQPEDFATYHCQQGYRWPVTFGQGTKVEIKR
notes: VK dAb
B11: ABT1-95-93 (other)
VL: DIQMTQSPSSLSASVGDRVTITCRASQPIVRNLRWYQQKPGKAPKLLIYSSSILEPGVPSRFSGGGSGTDFTLTISSLQPEDFATYHCQQGYRWPVTFGQGTKVEIKR
notes: VK dAb
B12: ABT1-95-42 (other)
VL: DIQMTQSPSSLSASVGDRVTITCRASFPIVRNLRWYQQKPGKAPKLLIYSSSYLEPGVPSRFSGSGSGTDFTLTISSLQPEDFATYHCQQGYRWPVTFGQGTKVEIKR
notes: VK dAb
B13: ABT1-95-50 (other)
VL: DIQMTQSPSSLSASVGDRVTITCRASQPIPRNLRWYQQKPGKAPKLLIYSSSYLEPGVPSRFSGSGSGTDFTLTISSLQPEDFATYHCQQGYRWPVTFGQGTKVEIKR
notes: VK dAb
B14: ABT1-95-89 (other)
VL: DIQMTQSPSSLSASVGDRVTITCRASQPIVRNLRWYQQKPGKAPKLLIYSSSLLEPGVPSRFSGSGSGTDFTLTISSLQPEDFATYHCQQGYRWPVTFGQGTKVEIKR
notes: VK dAb
B15: ABT1-95-74 (other)
VL: DIQMTQSPSSLSASVGDRVTITCRASQPIVRNLRWYQQRPGKAPKLLIYSGSYLEPGVPSRFSGSGSGTDFTLTISSLQPEDFATYHCQQGYRWPVTFGQGTKVEIKR
notes: VK dAb
B16: ABT1-95-77 (other)
VL: DIQMTQSPSSLSASVGDRVTITCRASQPIVRNLRWYQQKPGKAPELLIYSGSYLEPGVPSRFSGSGSGTDFTLTISSLQPEDFATYHCQQGYRWPVTFGQGTKVEIKR
notes: VK dAb
B17: ABT1-95-96 (other)
VL: DIQMTQSPSSLSASVGDRVTIACRASQPIVRNLRWYQQKPGKAPKLLIYSSSRLEPGVPSRFSGSGSGTDFTLTISSLQPEDFATYHCQQGYRWPVTFGQGTKVEIKR
notes: VK dAb
B18: ABT1-95-54 (other)
VL: DIQMTQSPSSLSASVGDRVTITCRASQPIVTNLRWYQQKPGKAPKLLIYSSSYLEPGVPSRFSGSGSGTDFTLTISSLQPEDFATYHCQQGYRWPVTFGQGTKVEIKR
notes: VK dAb
B19: ABT1-95-57 (other)
VL: DIQMTQSPSSLSASVGDRVTITCRASQPIVENLRWYQQKPGKAPKLLIYSSSYLEPGVPSRFSGSGSGTDFTLTISSLQPEDFATYHCQQGYRWPVTFGQGTKVEIKR
notes: VK dAb
B20: ABT1-95-39 (other)
VL: DIQMTQSPSSLSASVGDRVTITCRASQPIVRNLRWYQQKPGKAPKLLIYSSSYLEPGVPSRFSGSGSGTDFTLTISGLQPEDFATYHCQQGYRWPVTFGQGTKVEIKR
notes: VK dAb
B21: ABT1-95-70 (other)
VL: DIQMTQSPSSLSASVGDRVTITCRASQPIVRNLRWYQQKPGKAPKLLVYGSSYLEPGVPSRFSGSGSGTDFTLTISSLQPEDFATYHCQQGYRWPVTFGQGTKVEIKR
notes: VK dAb
B22: ABT1-95-71 (other)
VL: DIQMTQSPSSLSASVGDRVTITCRASQPIVRNLRWYQQKPGKAPKLLIYNSSYLEPGVPSRFSGSGSGTDFTLTISSLQPEDFATYHCQQGYRWPVTFGQGTKVEIKR
notes: VK dAb
B23: ABT1-95-65 (other)
VL: DIQMTQSPSSLSASVGDRVTITCRASQPIVRNLRWYQQKPGKAPKLLIYGSSYLEPGVPSRFSGSGSGTDFTLTISSLQPEDFATYHCQQGYRWPVTFGQGTKVEIKR
notes: VK dAb
B24: ABT1-95-91 (other)
VL: DIQMTQSPSSLSASVGDRVTITCRASQPIVRNLRWYQQKPGKAPKLLIYSSSNLEPGVPSRFSGSGSGTDFTLTISSLQPEDFATYHCQQGYRWPVTFGQGTKVEIKR
notes: VK dAb
B25: ABT1-95-83 (other)
VL: DIQMTQSPSSLSASVGDRVTITCRASQPIVRNLRWYQQKPGKAPKLLIYSSSYLEPGVPPRFSGSGSGTDFTLTISSLQPEDFATYHCQQGYRWPVTFGQGTKVEIKR
notes: VK dAb
B26: ABT1-95-90 (other)
VL: DIQMTQSPSSLSASVGDRVTITCRASQPIVRNLRWYQQKPGKAPKLLIYSSSQLEPGVPSRFSGSGSGTDFTLTISSLQPEDFATYHCQQGYRWPVTFGQGTKVEIKR
notes: VK dAb
B27: ABT1-95-78 (other)
VL: DIQMTQSPSSLSASVGDRVTITCRASQPIVRNLRWYQQKPGKAPKLLIYSESYLEPGVPSRFSGSGSGTDFTLTISSLQPEDFATYHCQQGYRWPVTFGQGTKVEIKR
notes: VK dAb
B28: ABT1-95-94 (other)
VL: DIQMTQSPSSLSASVGDRVTITCRASQPIVRNLRWYQQKPGKAPKLLIYSSSSLEPGVPSRFSGSGSGTDFTLTISSLQPEDFATYHCQQGYRWPVTFGQGTKVEIKR
notes: VK dAb
B29: ABT1-95-87 (other)
VL: DIQMTQSPSSLSASVGDRVTITCRASQPIVRNLRWYQQKPGKAPKLLIYSSSRLEPGVPSRFSGSGSGTDFTLTISSLQPEDFATYHCQQGYRWPVTFGQGTKVEIKR
notes: VK dAb
B30: ABT1-95-72 (other)
VL: DIQMTQSPSSLSASVGDRVTITCRASQPIVRNLRWYQQKPGKAPKLLIYHSSYLEPGVPSRFSGSGSGTDFTLTISSLQPEDFATYHCQQGYRWPVTFGQGTKVEIKR
notes: VK dAb
B31: ABT1-95-60 (other)
VL: DIQMTQSPASLSASVGDRVTITCRASQPIVANLRWYQQKPGKAPKLLIYSSSYLEPGVPSRFSGSGSGTDFTLTISSLQPEDFATYHCQQGYRWPVTFGQGTKVEIKR
notes: VK dAb
B32: ABT1-95-69 (other)
VL: DIQMTQSPSSLSASVGDRVTITCRASQPIVRNLRWYQQKPGKAPKLLIYKSSYLEPGVPSRFSGSGSGTDFTLTISSLQPEDFATYHCQQGYRWPVTFGQGTKVEIKR
notes: VK dAb
B33: ABT1-95-58 (other)
VL: DIQMTQSPSSLSASVGDRVTITCRARQPIVSNLRWYQQKPGKAPKLLIYSSSYLEPGVPSRFSGSGSGTDFTLTISSLQPEDFATYHCQQGYRWPVTFGQGTKVEIKR
notes: VK dAb
B34: ABT1-95-52 (other)
VL: DIQMTQSPSSLSASVGDRVTITCRASQPIVSNLRWYQQKPGKAPKLLIYSSSYLEPGVPSRFSGSGSGTDFTLTISSLQPEDFATYHCQQGYRWPVTFGQGTKVEIKR
notes: VK dAb

In this assay the target is T1, human IL-1α (human, UniProt P01583 113-271).
T1 construct: also called IL-1alpha; hIL-1α
T1 sequence (looked up): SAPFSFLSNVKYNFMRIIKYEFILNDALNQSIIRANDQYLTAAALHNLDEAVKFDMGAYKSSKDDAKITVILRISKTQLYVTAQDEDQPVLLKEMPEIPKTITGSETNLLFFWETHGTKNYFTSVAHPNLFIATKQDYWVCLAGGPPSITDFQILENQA
Description: Table 62 IC50; RBA presumed.
B1 yielded an IC50 of 0.2 nM. The molecule B2 showed an IC50 of 0.3 nM.

For B3, the IC50 amounted to 0.6 nM. B4 showed an IC50 of 0.3 nM.

For the molecule B5, the IC50 stood at 0.3 nM. B6 came in with an IC50 of 0.6 nM. Consider B7, for which half-maximal inhibition (IC50) required 3 nM. B8 registered an IC50 of 0.3 nM. The result for B9 reads 0.8 nM; that for B10, 0.3 nM; that for B11, 0.1 nM. In the case of B12, inhibition was half-maximal at 0.1 nM (IC50). That is a sub-nanomolar value. The result for B13 reads 0.5 nM; that for B14, 0.3 nM. As to B15, the IC50 is 0.3 nM. With B16, inhibition was half-maximal at 0.3 nM (IC50).

B17: the IC50 turned out to be 0.1 nM. With B18, the IC50 was 1 nM. The result for B19 reads 0.6 nM; that for B20, 0.2 nM. B21: the IC50 was determined as 0.1 nM. In turn, B22 had an IC50 of 1 nM. B23 came in with an IC50 of 0.2 nM.

The molecule B24 showed an IC50 of 0.3 nM. On to B25, for which the IC50 was found to be 0.2 nM.

B26 returned an IC50 of 0.5 nM. Against the preceding molecule, the IC50 is about 2.5-fold higher. Take B27: the IC50 came out at 0.3 nM. B28: the IC50 turned out to be 0.1 nM.

B29 returned an IC50 of 0.2 nM. With B30, the IC50 was found to be 1 nM. In the case of B31, half-maximal inhibition (IC50) was put at 0.7 nM. The result for B32 reads 1 nM; that for B33, 0.6 nM. In turn, B34 showed a concentration for half-maximal inhibition (IC50) of 1 nM. This IC50 lies about 1.7-fold higher than the previous one.

What is called IC50 is the point on the concentration scale where inhibition reaches its midpoint.
